Experimental data reported in the supplement of paper PMC7125110.
± gives the standard error. This sample holds only a part of the variants without activity.

B1: glmS ribozyme (parent)
chain: AUAAAAGCGCCAGAACUACAGAAAUGUAGUUGACGAGGAGGAGGUUUAUCGAAUUUUCGGCGGAUGCCUCCAAA

Assays:
Settings in all cases: with glucosamine-6-phosphate
[1] = variants of: B1; test: self-cleavage kobs at 160 uM GlcN6P; higher = faster cleavage; RNA array
Method in brief: (§1)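 Glucosamine-6-phosphate (40 μM to 10 mM) in HEPES/KCl/Mg(OAc)2 buffer was flowed over sequenced MiSeq chips, and tiles were imaged over ~14 h. Barcoded ribozyme variants there had been transcribed in situ by E. coli RNA polymerase and were tracked through a hybridised Cy3 probe at 37 °C. One- or two-exponential decay fits to per-tile medians, normalised to baseline and to non-cleaving reference variants, gave kobs. kcat and KM came from weighted Michaelis–Menten fits across concentrations.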

[2] = variants of: B1; test: self-cleavage kobs at 2500 uM GlcN6P; higher = faster cleavage; RNA array
Method in brief: as §1

[3] = variants of: B1; test: self-cleavage kobs at 640 uM GlcN6P; higher = faster cleavage; RNA array
Method in brief: as §1

[4] = variants of: B1; test: self-cleavage kobs at 10000 uM GlcN6P; higher = faster cleavage; RNA array
Method in brief: as §1

Variant	self-cleavage kobs at 160 uM GlcN6P [1] [s⁻¹]	self-cleavage kobs at 2500 uM GlcN6P [2] [s⁻¹]	self-cleavage kobs at 640 uM GlcN6P [3] [s⁻¹]	self-cleavage kobs at 10000 uM GlcN6P [4] [s⁻¹]
G7A G59U C70A	< 1e-05	< 1e-05	–	–
G9U G62A	< 1e-05	< 1e-05	< 1e-05	< 1e-05
G37C G44A U49A C68U	< 1e-05	< 1e-05	–	–
C16G G44C C68U	< 1e-05	< 1e-05	–	–
G9U A33C	< 1e-05	< 1e-05	< 1e-05	< 1e-05
G7A C8U C16A G43C G44U G63U C68U	< 1e-05	< 1e-05	< 1e-05	< 1e-05
C10G U57C	< 1e-05	< 1e-05	< 1e-05	< 1e-05
C10U A36G U46C	< 1e-05	< 1e-05	–	< 1e-05
U45A U54C	0.00513 ± 0.001	–	0.0141 ± 0.0026	–
G7A G62C C67G	< 1e-05	< 1e-05	< 1e-05	–
G9U A12C C67U	< 1e-05	< 1e-05	< 1e-05	< 1e-05
A6G C11A A14U G40A	< 1e-05	–	–	–
A36C G38C G63A	< 1e-05	–	–	–
G29A A52C	< 1e-05	–	< 1e-05	< 1e-05
C10A A12G A15G C61A	< 1e-05	–	–	–
C8U G41C G62U C68U	< 1e-05	< 1e-05	< 1e-05	–
A6U G35C	< 1e-05	–	< 1e-05	< 1e-05
G7A G40A	< 1e-05	–	< 1e-05	–
U55G U56G U69C	0.000134 ± 3.4e-05	0.000201 ± 4.3e-05	0.000115 ± 2.6e-05	–
A6C G7C A15U	< 1e-05	< 1e-05	< 1e-05	–
C10G A39U	< 1e-05	–	< 1e-05	–
U54G C68A	6.58e-05 ± 2.7e-05	0.000107 ± 2.7e-05	6.59e-05 ± 2.9e-05	–
G44U C50A C68G	< 1e-05	< 1e-05	–	–
G41A C50A	< 1e-05	< 1e-05	< 1e-05	< 1e-05
C16G G29C C71G	9.16e-05 ± 1.5e-05	–	–	–
G35A G43A U47C U56C	< 1e-05	–	< 1e-05	–

Variant	self-cleavage kobs at 160 uM GlcN6P [1] [s⁻¹]	self-cleavage kobs at 2500 uM GlcN6P [2] [s⁻¹]	self-cleavage kobs at 640 uM GlcN6P [3] [s⁻¹]	self-cleavage kobs at 10000 uM GlcN6P [4] [s⁻¹]
G43U G59U G60A	< 1e-05	< 1e-05	–	–
G9A A52G	< 1e-05	< 1e-05	< 1e-05	–
C11A A48C	< 1e-05	< 1e-05	< 1e-05	–
G9U U56C G62C	< 1e-05	–	< 1e-05	–
G9C U56A	< 1e-05	< 1e-05	< 1e-05	–
C11A G38U G40U	< 1e-05	–	–	–
G13U G51C U65G	< 1e-05	–	< 1e-05	–
C8G G9U A12U C16G	< 1e-05	–	< 1e-05	–
U31C G35C	< 1e-05	< 1e-05	< 1e-05	< 1e-05
A33G A52G U56A	< 1e-05	–	–	< 1e-05
C16G A33C C71U	< 1e-05	< 1e-05	< 1e-05	–
A36U U54G	< 1e-05	–	–	–
C11A A12U	7.68e-05 ± 1.8e-05	0.000539 ± 7.7e-05	0.000339 ± 6e-05	0.00156 ± 0.00028
U31G G35A C67A	< 1e-05	–	< 1e-05	–
A12C A15U U55G C67U	4.96e-05 ± 2.1e-05	0.000447 ± 0.00013	0.0001 ± 2.8e-05	–
A12C A39G C70U	0.000758 ± 0.00028	–	–	–
G38A G51C	< 1e-05	–	–	–
U30C U55A	3.75e-05 ± 1.3e-05	–	9.3e-05 ± 1.6e-05	–
C10G G13U A15C	< 1e-05	–	< 1e-05	–
A48C U69A	< 1e-05	–	< 1e-05	–
G7U G13U A14U A48G U54A	< 1e-05	< 1e-05	< 1e-05	–
G13A A33G A36U G40U U55A	< 1e-05	< 1e-05	< 1e-05	–
G35A A39C	< 1e-05	< 1e-05	< 1e-05	< 1e-05
A15G A36U C50A G60A	< 1e-05	–	< 1e-05	–
C11U G43U A48G C71G	< 1e-05	< 1e-05	< 1e-05	–
G7A G35U	< 1e-05	–	< 1e-05	< 1e-05

Variant	self-cleavage kobs at 160 uM GlcN6P [1] [s⁻¹]	self-cleavage kobs at 2500 uM GlcN6P [2] [s⁻¹]	self-cleavage kobs at 640 uM GlcN6P [3] [s⁻¹]	self-cleavage kobs at 10000 uM GlcN6P [4] [s⁻¹]
G13C A53U G59A C71U	< 1e-05	< 1e-05	–	–
A33U U45G	< 1e-05	–	–	3.8e-05 ± 7.6e-06
C8U C71G	< 1e-05	< 1e-05	< 1e-05	–
A36U G41C	< 1e-05	< 1e-05	–	< 1e-05
U30C C58U C67G C71A	0.000188 ± 5.3e-05	0.000197 ± 4.3e-05	0.000584 ± 0.00013	–
C10G C11G G37C A53G	< 1e-05	< 1e-05	–	–
G7U U46A C50G G60A U65G U69A	0.000502 ± 0.00021	–	–	–
A6G G32U C50G U57G C61A G66U	0.000258 ± 4.1e-05	0.000553 ± 9.8e-05	–	9.54e-05 ± 1.9e-05
A15C A33G G44A U47C G62A	< 1e-05	–	–	–
C8A C61U A64C C67U	< 1e-05	< 1e-05	< 1e-05	–
C50G G66C	0.000112 ± 3.9e-05	–	–	–
C16U G29C C50G	0.000111 ± 3.4e-05	6.6e-05 ± 2.7e-05	–	–
A12C G35C	< 1e-05	< 1e-05	< 1e-05	–
A14U U55A U69A	0.000101 ± 2.7e-05	8.95e-05 ± 1.1e-05	–	4.58e-05 ± 2e-05
A14G A15G U55G A64G	0.00524 ± 0.0017	–	0.00775 ± 0.002	–
G38C G59A	< 1e-05	–	< 1e-05	–
A36C A39U U57C	< 1e-05	–	–	–
C11G A39C A64U	< 1e-05	–	< 1e-05	–
C10A A39U U69G	< 1e-05	< 1e-05	< 1e-05	–
C10A G35C G51U	< 1e-05	< 1e-05	< 1e-05	–
C50A U57G U65C C70G	8.04e-05 ± 2.6e-05	0.000108 ± 3.5e-05	0.000128 ± 3.7e-05	3.25e-05 ± 1.6e-05
A6U U31A G43U	< 1e-05	< 1e-05	< 1e-05	–
G7U C16G U30G G59A U69G	< 1e-05	–	–	–
G7C C68G	< 1e-05	< 1e-05	< 1e-05	< 1e-05
G9A A52U C58U C70G	< 1e-05	–	< 1e-05	–
A53G G63U	< 1e-05	< 1e-05	< 1e-05	–

Variant	self-cleavage kobs at 160 uM GlcN6P [1] [s⁻¹]	self-cleavage kobs at 2500 uM GlcN6P [2] [s⁻¹]	self-cleavage kobs at 640 uM GlcN6P [3] [s⁻¹]	self-cleavage kobs at 10000 uM GlcN6P [4] [s⁻¹]
C19A C34G A39C	< 1e-05	< 1e-05	< 1e-05	–
G38A G41U U56G	< 1e-05	< 1e-05	< 1e-05	–
G38C G60C C71G	< 1e-05	–	< 1e-05	–
A6C G7A	< 1e-05	–	< 1e-05	–
C11A A42G G63A	< 1e-05	–	< 1e-05	–
G44U G59U	< 1e-05	< 1e-05	< 1e-05	< 1e-05
G7C C61A	< 1e-05	–	< 1e-05	–
G7A C58A	< 1e-05	< 1e-05	< 1e-05	–
A36U C61U A64G	< 1e-05	–	< 1e-05	–
A36C G44C	< 1e-05	< 1e-05	–	< 1e-05
G7U C16U	< 1e-05	–	–	–
G62U G66C	< 1e-05	< 1e-05	< 1e-05	< 1e-05
G13A G35C C71U	< 1e-05	–	< 1e-05	–
C11U A42U C68A	< 1e-05	< 1e-05	–	–
G7A U30C C61A C67U	< 1e-05	–	–	–
A6U U45A A48G	< 1e-05	–	< 1e-05	–
C8A G51U	< 1e-05	–	< 1e-05	–
A36G C50A	< 1e-05	–	< 1e-05	–
G26U A52G	9.82e-05 ± 2.9e-05	0.000726 ± 0.00017	–	–
C34A C61A	< 1e-05	< 1e-05	< 1e-05	–
A15G C58G C68U	8.66e-05 ± 3.1e-05	5.67e-05 ± 1.6e-05	6.1e-05 ± 1.7e-05	3.61e-05 ± 1.6e-05
C8G A12C A36C G59A	< 1e-05	< 1e-05	–	–
U30G A42G U56C	0.000132 ± 4.7e-05	0.000492 ± 0.00016	0.000353 ± 0.00011	–
